Laboratory results as given in patent US20170327579A1 (ENGMAB, published 2017).

T1: human BCMA on myeloma cells (H929, U266, patient bone marrow myeloma plasma cells) (human, UniProt Q02223 1-184)
T1 sequence (looked up): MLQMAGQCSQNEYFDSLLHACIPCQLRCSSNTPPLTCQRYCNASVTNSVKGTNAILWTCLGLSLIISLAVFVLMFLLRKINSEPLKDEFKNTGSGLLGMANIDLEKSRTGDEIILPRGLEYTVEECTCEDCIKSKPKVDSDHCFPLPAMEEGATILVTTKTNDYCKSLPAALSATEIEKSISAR

B1: pSCHLI333-TCB CLC (bispecific antibody)
heavy 1: not shown
heavy 2: QVQLVQSGAEVKKPGASVKVSCKASGYMFSSFGMSWVRQAPGQGLEWMGWIYPVGQGTWYAQKFQGRVTMTRDTSTSTVYMELSSLRSEDTAVYYCARVSYPPSHFDYWGQGTLVTVSSASTKGPSVFPLAPSSKSTSGGTAALGCLVKDYFPEPVTVSWNSGALTSGVHTFPAVLQSSGLYSLSSVVTVPSSSLGTQTYICNVNHKPSNTKVDKKVEPKSCDKTHTCPPCPAPEAAGGPSVFLFPPKPKDTLMISRTPEVTCVVVDVSHEDPEVKFNWYVDGVEVHNAKTKPREEQYNSTYRVVSVLTVLHQDWLNGKEYKCKVSNKALGAPIEKTISKAKGQPREPQVCTLPPSRDELTKNQVSLSCAVKGFYPSDIAVEWESNGQPENNYKTTPPVLDSDGSFFLVSKLTVDKSRWQQGNVFSCSVMHEALHNHYTQKSLSLSPGK
light: QAVVTQEPSLTVSPGGTVTLTCGSSTGAVTTSNYANWVQEKPGQAFRGLIGGTNKRAPGTPARFSGSLLGGKAALTLSGAQPEDEAEYYCALWYSNLWVFGGGTKLTVLGQPKAAPSVTLFPPSSEELQANKATLVCLISDFYPGAVTVAWKADSSPVKAGVETTTPSKQSNNKYAASSYLSLTPEQWKSHRSYSCQVTHEGSTVEKTVAPTECS
B2: pSCHLI372-TCB CLC (bispecific antibody)
heavy 1: not shown
heavy 2: EVQLVESGGGLVKPGGSLRLSCAASGFTFSNSGMIWVRQAPGKGLEWVGHIRSKTDGGTTDYAAPVKGRFTISRDDSKNTLYLQMNSLKTEDTAVYYCTTGGSGSFDYWGQGTLVTVSSASTKGPSVFPLAPSSKSTSGGTAALGCLVKDYFPEPVTVSWNSGALTSGVHTFPAVLQSSGLYSLSSVVTVPSSSLGTQTYICNVNHKPSNTKVDKKVEPKSCDKTHTCPPCPAPEAAGGPSVFLFPPKPKDTLMISRTPEVTCVVVDVSHEDPEVKFNWYVDGVEVHNAKTKPREEQYNSTYRVVSVLTVLHQDWLNGKEYKCKVSNKALGAPIEKTISKAKGQPREPQVCTLPPSRDELTKNQVSLSCAVKGFYPSDIAVEWESNGQPENNYKTTPPVLDSDGSFFLVSKLTVDKSRWQQGNVFSCSVMHEALHNHYTQKSLSLSPGK
light: B1 light

Key:
[1] = molecular target: T1, human BCMA on myeloma cells (H929, …); assay: cell-based or functional assay
[2] = molecular target: T1, human BCMA on myeloma cells (H929, …); assay: cell-based or functional assay; remark: listed apart in the source

Row | Binder | EC50 (pM) for redirected T-cell killing of H929 cells (LDH release) [1] [pM] | EC50 (µg/ml) for redirected T-cell killing of H929 cells (LDH release) [1] [µg/mL] | EC50 (pM) for redirected T-cell killing of H929 cells (LDH release), Experiment 1 [1] [pM] | EC50 (pM) for redirected T-cell killing of H929 cells (LDH release), Experiment 2 [1] [pM] | EC50 (µg/ml) for redirected T-cell killing of H929 cells (LDH release), Experiment 1 [1] [µg/mL] | EC50 (µg/ml) for redirected T-cell killing of H929 cells (LDH release), Experiment 2 [1] [µg/mL] | EC50 (pM) for redirected T-cell killing of U266 cells (LDH release) [2] [pM] | EC50 (µg/ml) for redirected T-cell killing of U266 cells (LDH release) [2] [µg/mL]
1 | B1 | 980 | 0.19 |  |  |  |  |  | 
2 | B2 |  |  | 450 | 900 | 0.08 | 0.17 | 5700 | 1.1
